From publication PMC3945637 (Frontiers in Pharmacology, 2014)
One block for each compound: values may come before it. Peptide text beside a SMILES is read from it.

Assays:
human B1R (B1R-FLAG) = target: T1, human B1R (B1R-FLAG) (Homo sapiens, UniProt P46663); experiment: [3H]Lys-des-Arg9-BK binding competition to B1R-FLAG transiently expressed in HEK 293a cells; conditions: log of IC50; 1 nM [3H]Lys-des-Arg9-BK, HEK 293a cells
T1 construct: FLAG; expressed in transfected cells
T1 sequence (P46663 1-353): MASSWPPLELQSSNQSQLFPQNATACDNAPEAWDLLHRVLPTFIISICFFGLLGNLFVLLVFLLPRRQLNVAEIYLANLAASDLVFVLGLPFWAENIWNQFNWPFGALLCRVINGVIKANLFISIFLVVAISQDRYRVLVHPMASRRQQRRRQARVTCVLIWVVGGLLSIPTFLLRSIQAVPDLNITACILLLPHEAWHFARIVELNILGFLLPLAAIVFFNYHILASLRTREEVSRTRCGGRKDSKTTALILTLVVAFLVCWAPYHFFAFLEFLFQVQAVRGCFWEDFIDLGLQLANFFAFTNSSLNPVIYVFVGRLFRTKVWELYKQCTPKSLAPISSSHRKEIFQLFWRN

human recombinant ACE [1] = target: T2, human recombinant ACE (Homo sapiens, UniProt P12821); experiment: [3H]enalaprilat binding competition to recombinant ACE transiently expressed in HEK 293a cells; parameters: expressed in transfected cells; host or cells: HEK 293a cells, transient expression (peACE vector, gift from Prof. P. Corvol)
Procedure: (§1) Affinity for the B2R was evaluated using a radioligand binding competition assay performed at 0 °C in the presence of peptidase inhibitors that included captopril ([Houle et al., 2000]). […] Other HEK 293a cells that transiently expressed human recombinant ACE were used to perform a [^3H]enalaprilat binding assay as described ([Koumbadinga et al., 2010]; the peACE vector was a gift from Prof. P. Corvol, Paris, France).
(§2) Results are presented as mean ± SEM. Radioligand binding data were fitted by non-linear regression to a one-site competition equation using a least-square method (Prism 4.0, GraphPad Software Inc., San Diego, CA, USA) and IC50 values calculated from this procedure. The same computer program was used to draw concentration-effect curves (least square fitting of sigmoidal dose-response equation with variable slope) and to derive contractile EC50 values. The qualitative effect of treatments on the distribution of the B2R-GFP fluorescent protein (either located at the plasma membrane or submitted to internalization) was evaluated for each HEK 293 cell in large microphotographic records and proportion of affected cells were compared using the χ^2 statistics to determine drug effect on the subcellular receptor distribution.

[2] = target: T3, rabbit B2R-green fluorescent protein (B2R-GFP) (Oryctolagus cuniculus, UniProt Q28642); experiment: [3H]BK binding competition to B2R-GFP stably expressed in intact HEK 293 cells
T3 construct: expressed in transfected cells
T3 sequence (Q28642 1-367): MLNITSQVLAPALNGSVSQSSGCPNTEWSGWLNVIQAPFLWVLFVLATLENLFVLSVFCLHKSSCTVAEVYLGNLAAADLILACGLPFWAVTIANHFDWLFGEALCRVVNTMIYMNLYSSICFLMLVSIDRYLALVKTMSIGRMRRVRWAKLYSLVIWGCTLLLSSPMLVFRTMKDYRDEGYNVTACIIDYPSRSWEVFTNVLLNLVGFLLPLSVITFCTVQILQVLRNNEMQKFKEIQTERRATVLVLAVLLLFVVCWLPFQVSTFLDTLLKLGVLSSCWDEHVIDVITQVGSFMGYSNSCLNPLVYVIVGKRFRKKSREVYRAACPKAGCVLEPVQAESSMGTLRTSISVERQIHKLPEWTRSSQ
Procedure: as §1, §2

[3] = target: T4, BK B2R (human umbilical vein rings) (Homo sapiens, UniProt P30411); experiment: Human isolated umbilical vein contractility assay; format: cell-based
T4 construct: from tissue; host or cells: human umbilical vein rings
T4 sequence (P30411 1-391): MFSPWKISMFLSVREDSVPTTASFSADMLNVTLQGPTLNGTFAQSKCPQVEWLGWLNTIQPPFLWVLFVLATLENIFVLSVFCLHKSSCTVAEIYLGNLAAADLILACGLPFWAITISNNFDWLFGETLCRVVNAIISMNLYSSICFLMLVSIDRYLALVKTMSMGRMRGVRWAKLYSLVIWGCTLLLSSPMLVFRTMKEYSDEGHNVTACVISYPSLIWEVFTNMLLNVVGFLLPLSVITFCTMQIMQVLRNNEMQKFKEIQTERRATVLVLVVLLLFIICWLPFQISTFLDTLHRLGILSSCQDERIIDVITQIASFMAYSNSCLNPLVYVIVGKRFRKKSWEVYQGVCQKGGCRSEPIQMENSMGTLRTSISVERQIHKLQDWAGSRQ
From the text: The institutional research ethics board (CHU de Québec) approved the anonymous use of human umbilical cord segments obtained after elective cesarean section deliveries. Informed consent was obtained from mothers. […] Tissues were used only once and discarded; controls curves were obtained from other vascular rings from the same vein.
as §2

[4] = target: endogenous B2 receptor of the human umbilical vein (human (endogenous in umbilical vein)) (UniProt P30411)
[5] = target: rabbit B2R-green fluorescent protein (rabbit) (UniProt Q28642); experiment: radioligand binding; competition of 3 nM [^3H]BK binding to adherent intact HEK 293 cells stably expressing rabbit B2R-GFP by unlabeled peptides; 0 °C; peptidase inhibitors that included captopril; one-site competition fit
human recombinant ACE [6] = target: T2, human recombinant ACE; experiment: radioligand binding; competition of 2 nM [^3H]enalaprilat binding to HEK 293a cells transiently expressing human recombinant ACE by BK and analogs; one-site competition fit
[7] = target: human B1R (B1R-FLAG vector) (human) (UniProt P46663); experiment: radioligand binding; competition of 1 nM [^3H]Lys-des-Arg^9-BK binding to HEK 293a cells transiently expressing human B1R (B1R-FLAG vector); one-site competition fit

T2 sequence (P12821 30-1306): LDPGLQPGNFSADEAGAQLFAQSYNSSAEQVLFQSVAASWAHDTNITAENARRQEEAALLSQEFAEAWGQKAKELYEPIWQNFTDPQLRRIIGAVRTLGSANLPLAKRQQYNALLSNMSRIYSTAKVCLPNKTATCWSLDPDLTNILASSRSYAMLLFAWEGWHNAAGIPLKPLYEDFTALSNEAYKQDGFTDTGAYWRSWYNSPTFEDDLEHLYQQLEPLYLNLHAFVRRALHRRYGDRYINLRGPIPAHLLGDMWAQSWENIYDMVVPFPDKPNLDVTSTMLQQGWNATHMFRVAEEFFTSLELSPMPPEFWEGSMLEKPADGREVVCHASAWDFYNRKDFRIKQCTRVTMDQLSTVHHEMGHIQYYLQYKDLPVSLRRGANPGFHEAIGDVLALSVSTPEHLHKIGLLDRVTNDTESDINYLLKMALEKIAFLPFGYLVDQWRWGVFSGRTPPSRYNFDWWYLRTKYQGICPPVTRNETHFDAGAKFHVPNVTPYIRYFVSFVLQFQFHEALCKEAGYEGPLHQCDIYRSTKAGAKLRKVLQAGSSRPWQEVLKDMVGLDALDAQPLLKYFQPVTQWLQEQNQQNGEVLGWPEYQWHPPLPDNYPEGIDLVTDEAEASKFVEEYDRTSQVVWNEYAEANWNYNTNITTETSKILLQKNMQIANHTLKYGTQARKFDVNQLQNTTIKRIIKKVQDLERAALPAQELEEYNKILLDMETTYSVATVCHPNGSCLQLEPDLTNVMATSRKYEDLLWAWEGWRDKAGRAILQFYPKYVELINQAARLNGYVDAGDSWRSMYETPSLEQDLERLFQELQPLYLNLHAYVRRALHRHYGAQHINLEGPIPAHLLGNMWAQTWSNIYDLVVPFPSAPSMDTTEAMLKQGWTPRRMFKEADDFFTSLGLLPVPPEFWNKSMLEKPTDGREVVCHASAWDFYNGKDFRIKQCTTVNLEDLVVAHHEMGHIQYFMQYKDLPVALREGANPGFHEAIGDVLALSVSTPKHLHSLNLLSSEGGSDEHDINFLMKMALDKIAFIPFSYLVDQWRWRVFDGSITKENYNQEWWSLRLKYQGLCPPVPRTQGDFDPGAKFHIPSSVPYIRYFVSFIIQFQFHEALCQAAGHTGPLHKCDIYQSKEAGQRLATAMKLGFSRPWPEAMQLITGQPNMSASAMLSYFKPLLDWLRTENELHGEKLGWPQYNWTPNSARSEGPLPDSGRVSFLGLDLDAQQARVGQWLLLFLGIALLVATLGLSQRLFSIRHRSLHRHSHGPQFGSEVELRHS

Compound: N=C(N)NCCC[C@H](NC(=O)[C@H](Cc1ccccc1)NC(=O)[C@@H]1CCCN1C(=O)[C@H](CO)NC(=O)[C@H](Cc1ccccc1)NC(=O)CNC(=O)[C@@H]1CCCN1C(=O)[C@@H]1CCCN1C(=O)[C@@H](N)CCCNC(=N)N)C(=O)N[C@@H](CO)C(=O)N[C@@H](Cc1ccc(O)cc1)C(=O)O [BK-Ser-Tyr] (H-RPPGFSPFRSY-OH; N-terminus and C-terminus assumed)
[3H]Lys-des-Arg9-BK binding to B1R-FLAG log(IC50) ± SE (human B1R (B1R-FLAG)): >-5
fold lesser affinity vs. BK for ACE (human recombinant ACE [1]; [3H]enalaprilat binding competition, vs BK): 3.94 fold
[3H]enalaprilat binding to ACE log(IC50) ± SE (human recombinant ACE [1]; log of IC50, 2 nM [3H]enalaprilat, HEK 293a cells): -5.21 ± 0.15
IC50 for B2R-GFP relative to unlabeled BK (fold greater IC50 / lower affinity) ([2]; [3H]BK binding competition, vs BK): 102 fold
[3H]BK binding to B2R-GFP log(IC50) ± SE ([2]; log of IC50, 3 nM [3H]BK, 0 °C, with peptidase inhibitors incl. captopril, HEK 293 cells): -5.79 ± 0.13
fold less potent than BK as contractile agent ([3]; control conditions, vs BK): 6.9 fold
decrease of apparent contractile potency by ACE blockade ([3]; enalaprilat 1 μM vs paired control tissues): 3.9 fold
+Peptidase inhibitor log(EC50) ± SE ([3]; log of contractile EC50, enalaprilat 1 μM, 30 min before agonist): -6.32 ± 0.06
Control (DMSO vehicle) log(EC50) ± SE ([3]; log of contractile EC50, no peptidase inhibitor, paired tissues): -6.90 ± 0.09

Compound: BK-Ala-Pro (peptide)
log(EC50) of contraction of the human isolated umbilical vein, with ACE blocked by enalaprilat 1 μM, Figure 3D [4]: -5.55 log M
log(IC50) (human recombinant ACE [6]): -5.46 log M
log(IC50) [7]: > -5 log M
log(IC50) [5]: -5.11 log M

Compound: BK-His-Leu (peptide)
log(EC50) of contraction of the human isolated umbilical vein, with ACE blocked by enalaprilat 1 μM, Figure 3C [4]: -5.34 log M
log(IC50) (human recombinant ACE [6]): -5.28 log M
log(IC50) [7]: > -5 log M
log(IC50) [5]: -5.24 log M

Compound: BK-Ser-Tyr (peptide)
log(EC50) of contraction of the human isolated umbilical vein, with ACE blocked by enalaprilat 1 μM, Figure 3B [4]: -6.32 log M
log(IC50) (human recombinant ACE [6]): -5.21 log M
log(IC50) [7]: > -5 log M
log(IC50) [5]: -5.79 log M

More lines, now with the values ahead:

log(EC50) of contraction of the human isolated umbilical vein, control (DMSO vehicle), Figure 5B [4]: -7.39 log M
log(EC50) of contraction of the human isolated umbilical vein, with NVP-DPP728 1 μM, Figure 5B [4]: -7.29 log M
log(EC50) of contraction of the human isolated umbilical vein, with amastatin 3 μM, Figure 5B [4]: -7.35 log M
log(IC50) [5]: -7.61 log M
Compound: Arg-Pro-BK (peptide)

log(IC50) [7]: -5.12 log M
log(IC50) [5]: -6.34 log M
Compound: BK-Arg (peptide)
